Results taken from patent US20230265151A1, “GIP/GLP1 CO-AGONIST COMPOUNDS” (priority 2020, published 2023).
*1 amine or outer side, *2 acyl side, *3 side chain or, on linkers, in order; H or OH if unused. Where no end group is shown, it is not given here. Side-chain parts run from the residue outwards. [ ]: non-standard residue; d: D form. The star is where a group is joined. Butanoyl(4-(4-tBuPh)) = CC(C)(C)c1ccc(CCCC(=O)*)cc1; αMePhe(2-F) = C[C@](N)(Cc1ccccc1F)C(=O)O; γGlu = O=C(O)[C@H](CCC(=O)[*:2])N[*:1]; C14 diacid = O=C(O)CCCCCCCCCCCCC(=O)*; εLys = N[C@@H](CCCCN[*:1])C(=O)[*:2]; αMeY = C[C@](N)(Cc1ccc(O)cc1)C(=O)O; αMeF = C[C@](N)(Cc1ccccc1)C(=O)O; αMeL = CC(C)C[C@](C)(N)C(=O)O; Lauroyl = CCCCCCCCCCCC(=O)*; Orn = NCCC[C@H](N)C(=O)O; Dap = NC[C@H](N)C(=O)O; AEEA = NCCOCCOCC(=O)O; Aib = CC(C)(N)C(=O)O

Tests used:
[1] = biological target: T1, human glucose-dependent insulinotropic polypeptide (GIP) receptor (human, UniProt P48546 22-466); experiment: cell-based or functional assay
T1 sequence (looked up): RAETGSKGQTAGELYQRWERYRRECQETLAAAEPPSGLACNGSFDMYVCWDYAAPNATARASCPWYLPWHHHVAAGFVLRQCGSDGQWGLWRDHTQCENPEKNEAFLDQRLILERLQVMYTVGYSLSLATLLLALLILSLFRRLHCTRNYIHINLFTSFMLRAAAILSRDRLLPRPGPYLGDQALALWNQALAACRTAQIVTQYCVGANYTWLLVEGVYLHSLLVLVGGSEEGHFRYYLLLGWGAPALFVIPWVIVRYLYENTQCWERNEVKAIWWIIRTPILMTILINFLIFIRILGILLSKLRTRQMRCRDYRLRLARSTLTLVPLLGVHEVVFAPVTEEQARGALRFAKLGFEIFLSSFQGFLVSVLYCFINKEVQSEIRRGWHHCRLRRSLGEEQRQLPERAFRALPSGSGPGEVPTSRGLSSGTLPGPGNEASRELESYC

[2] = biological target: human glucagon-like peptide-1 (GLP-1) receptor (human, UniProt P43220 24-463); experiment: cell-based or functional assay

B1: Example 175 (peptide)
peptide: Y[Aib]EGT[αMePhe(2-F)]TSDV[Aib]I[αMeL]LD[Orn]K([AEEA-AEEA-γGlu-Lauroyl])AQ[Aib]EFI[dE][αMeY]LIEGGK([AEEA-AEEA-γGlu-Lauroyl])SSGAPPPS-NH2
modifications: N-terminus assumed
SMILES: CCCCCCCCCCCC(=O)N[C@@H](CCC(=O)NCCOCCOCC(=O)NCCOCCOCC(=O)NCCCC[C@H](NC(=O)CNC(=O)CNC(=O)[C@H](CCC(=O)O)NC(=O)[C@@H](NC(=O)[C@H](CC(C)C)NC(=O)[C@](C)(Cc1ccc(O)cc1)NC(=O)[C@@H](CCC(=O)O)NC(=O)[C@@H](NC(=O)[C@H](Cc1ccccc1)NC(=O)[C@H](CCC(=O)O)NC(=O)C(C)(C)NC(=O)[C@H](CCC(N)=O)NC(=O)[C@H](C)NC(=O)[C@H](CCCCNC(=O)COCCOCCNC(=O)COCCOCCNC(=O)CC[C@H](NC(=O)CCCCCCCCCCC)C(=O)O)NC(=O)[C@H](CCCN)NC(=O)[C@H](CC(=O)O)NC(=O)[C@H](CC(C)C)NC(=O)[C@](C)(CC(C)C)NC(=O)[C@@H](NC(=O)C(C)(C)NC(=O)[C@@H](NC(=O)[C@H](CC(=O)O)NC(=O)[C@H](CO)NC(=O)[C@@H](NC(=O)[C@](C)(Cc1ccccc1F)NC(=O)[C@@H](NC(=O)CNC(=O)[C@H](CCC(=O)O)NC(=O)C(C)(C)NC(=O)[C@@H](N)Cc1ccc(O)cc1)[C@@H](C)O)[C@@H](C)O)C(C)C)[C@@H](C)CC)[C@@H](C)CC)[C@@H](C)CC)C(=O)N[C@@H](CO)C(=O)N[C@@H](CO)C(=O)NCC(=O)N[C@@H](C)C(=O)N1CCC[C@H]1C(=O)N1CCC[C@H]1C(=O)N1CCC[C@H]1C(=O)N[C@@H](CO)C(N)=O)C(=O)O
cAMP EC50 [1]: 0.0337 nM
cAMP Emax [1]: 100%
cAMP EC50 [2]: 0.227 nM
cAMP Emax [2]: 91.1%

B2: Example 165 (peptide)
peptide: Y[Aib]EGT[αMePhe(2-F)]TSDV[Aib]I[αMeL]LD[Orn]K([εLys-εLys-γGlu-C14 diacid])AQ[Aib]EFI[dE][αMeY]LIEGGK([εLys-εLys-γGlu-C14 diacid])SSGAPPPS-NH2
modifications: N-terminus assumed
SMILES: CC[C@H](C)[C@H](NC(=O)[C@H](CC(C)C)NC(=O)[C@](C)(Cc1ccc(O)cc1)NC(=O)[C@@H](CCC(=O)O)NC(=O)[C@@H](NC(=O)[C@H](Cc1ccccc1)NC(=O)[C@H](CCC(=O)O)NC(=O)C(C)(C)NC(=O)[C@H](CCC(N)=O)NC(=O)[C@H](C)NC(=O)[C@H](CCCCNC(=O)[C@@H](N)CCCCNC(=O)[C@@H](N)CCCCNC(=O)CC[C@H](NC(=O)CCCCCCCCCCCCC(=O)O)C(=O)O)NC(=O)[C@H](CCCN)NC(=O)[C@H](CC(=O)O)NC(=O)[C@H](CC(C)C)NC(=O)[C@](C)(CC(C)C)NC(=O)[C@@H](NC(=O)C(C)(C)NC(=O)[C@@H](NC(=O)[C@H](CC(=O)O)NC(=O)[C@H](CO)NC(=O)[C@@H](NC(=O)[C@](C)(Cc1ccccc1F)NC(=O)[C@@H](NC(=O)CNC(=O)[C@H](CCC(=O)O)NC(=O)C(C)(C)NC(=O)[C@@H](N)Cc1ccc(O)cc1)[C@@H](C)O)[C@@H](C)O)C(C)C)[C@@H](C)CC)[C@@H](C)CC)C(=O)N[C@@H](CCC(=O)O)C(=O)NCC(=O)NCC(=O)N[C@@H](CCCCNC(=O)[C@@H](N)CCCCNC(=O)[C@@H](N)CCCCNC(=O)CC[C@H](NC(=O)CCCCCCCCCCCCC(=O)O)C(=O)O)C(=O)N[C@@H](CO)C(=O)N[C@@H](CO)C(=O)NCC(=O)N[C@@H](C)C(=O)N1CCC[C@H]1C(=O)N1CCC[C@H]1C(=O)N1CCC[C@H]1C(=O)N[C@@H](CO)C(N)=O
cAMP EC50 [1]: 0.0442 nM
cAMP Emax [1]: 96.1%
cAMP EC50 [2]: 0.291 nM

B3: Example 201 (peptide)
peptide: Y[Aib]EGT[αMePhe(2-F)]TSDV[Dap]I[αMeL]LD[Orn]K([AEEA-AEEA-γGlu-C14 diacid])AQ[Aib]EFI[dE][αMeY]LIEGGK([AEEA-AEEA-γGlu-C14 diacid])SSGAPPPS-NH2
modifications: N-terminus assumed
SMILES: CC[C@H](C)[C@H](NC(=O)[C@H](CC(C)C)NC(=O)[C@](C)(Cc1ccc(O)cc1)NC(=O)[C@@H](CCC(=O)O)NC(=O)[C@@H](NC(=O)[C@H](Cc1ccccc1)NC(=O)[C@H](CCC(=O)O)NC(=O)C(C)(C)NC(=O)[C@H](CCC(N)=O)NC(=O)[C@H](C)NC(=O)[C@H](CCCCNC(=O)COCCOCCNC(=O)COCCOCCNC(=O)CC[C@H](NC(=O)CCCCCCCCCCCCC(=O)O)C(=O)O)NC(=O)[C@H](CCCN)NC(=O)[C@H](CC(=O)O)NC(=O)[C@H](CC(C)C)NC(=O)[C@](C)(CC(C)C)NC(=O)[C@@H](NC(=O)[C@H](CN)NC(=O)[C@@H](NC(=O)[C@H](CC(=O)O)NC(=O)[C@H](CO)NC(=O)[C@@H](NC(=O)[C@](C)(Cc1ccccc1F)NC(=O)[C@@H](NC(=O)CNC(=O)[C@H](CCC(=O)O)NC(=O)C(C)(C)NC(=O)[C@@H](N)Cc1ccc(O)cc1)[C@@H](C)O)[C@@H](C)O)C(C)C)[C@@H](C)CC)[C@@H](C)CC)C(=O)N[C@@H](CCC(=O)O)C(=O)NCC(=O)NCC(=O)N[C@@H](CCCCNC(=O)COCCOCCNC(=O)COCCOCCNC(=O)CC[C@H](NC(=O)CCCCCCCCCCCCC(=O)O)C(=O)O)C(=O)N[C@@H](CO)C(=O)N[C@@H](CO)C(=O)NCC(=O)N[C@@H](C)C(=O)N1CCC[C@H]1C(=O)N1CCC[C@H]1C(=O)N1CCC[C@H]1C(=O)N[C@@H](CO)C(N)=O
cAMP EC50 [1]: 0.188 nM
cAMP Emax [1]: 92.2%
cAMP EC50 [2]: 0.487 nM

B4: Example 212 (peptide)
peptide: YXEGTXTSDVXIXLDXKAQXEFIXXLIEGGKSSGAPPPS
modifications: Aib2, αMeF(2F)6, αMeS11, αMeL13, Orn16, K17(Z), Aib20, D-Glu24, αMeY25, K31(Z), C-terminal NH2; Z = AEEA2-(γ-Glu)-CO-(CH2)12-CO2H
cAMP EC50 [1]: 0.0385 nM
cAMP Emax [1]: 100%
cAMP EC50 [2]: 0.265 nM

Y[Aib]EGT[αMePhe(2-F)]TSDV[Aib]I[αMeL]LD[Orn]K([AEEA-AEEA-εLys-C14 diacid])AQ[Aib]EFI[dE][αMeY]LIEGGK([AEEA-AEEA-εLys-C14 diacid])SSGAPPPS-NH2 [Example 163]
cAMP EC50 [1]: 0.0427 nM
cAMP Emax [1]: 98.2%
cAMP EC50 [2]: 0.199 nM
cAMP Emax [2]: 86.3%

B5: Example 176 (peptide)
peptide: Y[Aib]EGT[αMeF]TSDV[Aib]I[αMeL]LD[Orn]K([AEEA-AEEA-γGlu-Lauroyl])AQ[Aib]EFI[dE][αMeY]LIEGGK([AEEA-AEEA-γGlu-Lauroyl])SSGAPPPS-NH2
modifications: N-terminus assumed
SMILES: CCCCCCCCCCCC(=O)N[C@@H](CCC(=O)NCCOCCOCC(=O)NCCOCCOCC(=O)NCCCC[C@H](NC(=O)CNC(=O)CNC(=O)[C@H](CCC(=O)O)NC(=O)[C@@H](NC(=O)[C@H](CC(C)C)NC(=O)[C@](C)(Cc1ccc(O)cc1)NC(=O)[C@@H](CCC(=O)O)NC(=O)[C@@H](NC(=O)[C@H](Cc1ccccc1)NC(=O)[C@H](CCC(=O)O)NC(=O)C(C)(C)NC(=O)[C@H](CCC(N)=O)NC(=O)[C@H](C)NC(=O)[C@H](CCCCNC(=O)COCCOCCNC(=O)COCCOCCNC(=O)CC[C@H](NC(=O)CCCCCCCCCCC)C(=O)O)NC(=O)[C@H](CCCN)NC(=O)[C@H](CC(=O)O)NC(=O)[C@H](CC(C)C)NC(=O)[C@](C)(CC(C)C)NC(=O)[C@@H](NC(=O)C(C)(C)NC(=O)[C@@H](NC(=O)[C@H](CC(=O)O)NC(=O)[C@H](CO)NC(=O)[C@@H](NC(=O)[C@](C)(Cc1ccccc1)NC(=O)[C@@H](NC(=O)CNC(=O)[C@H](CCC(=O)O)NC(=O)C(C)(C)NC(=O)[C@@H](N)Cc1ccc(O)cc1)[C@@H](C)O)[C@@H](C)O)C(C)C)[C@@H](C)CC)[C@@H](C)CC)[C@@H](C)CC)C(=O)N[C@@H](CO)C(=O)N[C@@H](CO)C(=O)NCC(=O)N[C@@H](C)C(=O)N1CCC[C@H]1C(=O)N1CCC[C@H]1C(=O)N1CCC[C@H]1C(=O)N[C@@H](CO)C(N)=O)C(=O)O
cAMP EC50 [1]: 0.0485 nM
cAMP Emax [1]: 89.3%
cAMP EC50 [2]: 0.298 nM

B6: Example 164 (peptide)
peptide: Y[Aib]EGT[αMePhe(2-F)]TSDV[Aib]I[αMeL]LD[Orn]K([εLys-γGlu-C14 diacid])AQ[Aib]EFI[dE][αMeY]LIEGGK([εLys-γGlu-C14 diacid])SSGAPPPS-NH2
modifications: N-terminus assumed
SMILES: CC[C@H](C)[C@H](NC(=O)[C@H](CC(C)C)NC(=O)[C@](C)(Cc1ccc(O)cc1)NC(=O)[C@@H](CCC(=O)O)NC(=O)[C@@H](NC(=O)[C@H](Cc1ccccc1)NC(=O)[C@H](CCC(=O)O)NC(=O)C(C)(C)NC(=O)[C@H](CCC(N)=O)NC(=O)[C@H](C)NC(=O)[C@H](CCCCNC(=O)[C@@H](N)CCCCNC(=O)CC[C@H](NC(=O)CCCCCCCCCCCCC(=O)O)C(=O)O)NC(=O)[C@H](CCCN)NC(=O)[C@H](CC(=O)O)NC(=O)[C@H](CC(C)C)NC(=O)[C@](C)(CC(C)C)NC(=O)[C@@H](NC(=O)C(C)(C)NC(=O)[C@@H](NC(=O)[C@H](CC(=O)O)NC(=O)[C@H](CO)NC(=O)[C@@H](NC(=O)[C@](C)(Cc1ccccc1F)NC(=O)[C@@H](NC(=O)CNC(=O)[C@H](CCC(=O)O)NC(=O)C(C)(C)NC(=O)[C@@H](N)Cc1ccc(O)cc1)[C@@H](C)O)[C@@H](C)O)C(C)C)[C@@H](C)CC)[C@@H](C)CC)C(=O)N[C@@H](CCC(=O)O)C(=O)NCC(=O)NCC(=O)N[C@@H](CCCCNC(=O)[C@@H](N)CCCCNC(=O)CC[C@H](NC(=O)CCCCCCCCCCCCC(=O)O)C(=O)O)C(=O)N[C@@H](CO)C(=O)N[C@@H](CO)C(=O)NCC(=O)N[C@@H](C)C(=O)N1CCC[C@H]1C(=O)N1CCC[C@H]1C(=O)N1CCC[C@H]1C(=O)N[C@@H](CO)C(N)=O
cAMP EC50 [1]: 0.0464 nM
cAMP Emax [1]: 95.8%
cAMP EC50 [2]: 0.236 nM

Y[Aib]EGT[αMePhe(2-F)]TSDV[Aib]I[αMeL]LD[Orn]K([AEEA-AEEA-γGlu-Butanoyl(4-(4-tBuPh))])AQ[Aib]EFI[dE][αMeY]LIEGGK([AEEA-AEEA-γGlu-Butanoyl(4-(4-tBuPh))])SSGAPPPS-NH2 [Example 177]
cAMP EC50 [1]: 0.0433 nM
cAMP Emax [1]: 113%
cAMP EC50 [2]: 0.178 nM
